Source: US20230242616A1, “CHEMOKINE-SELECTIVE CXCR4 ECTODOMAIN-DERIVED (POLY)PEPTIDE” (Ludwig-Maximilians-Universität München, priority 2020, published 2023)
pKd: −log10 of the molar value.

Columns and labels:
[1] = molecular target: msR4M-L1 (CXCR4-ECL1[97-110]-6-Ahx-12-Ado-ECL2[182-196]) (human); experiment: fluorescence spectroscopic titration, self-assembly; Fluos-msR4M-L1 titrated with unlabelled msR4M-L1
CXCL12 (human) = CXCL12 (human) (UniProt P48061); experiment: fluorescence spectroscopic titration, apparent KD; Fluos-labelled peptide (5 nM) titrated with CXCL12
[2] = molecular target: human macrophage migration-inhibitory factor (MIF) (human) (UniProt P14174); experiment: fluorescence spectroscopic titration
[3] = molecular target: human macrophage migration-inhibitory factor (MIF) (human) (UniProt P14174); experiment: fluorescence spectroscopic titration, apparent Kd; Fluos-ngm titrated with MIF
[4] = molecular target: human macrophage migration-inhibitory factor (MIF) (human) (UniProt P14174); experiment: cell-based or functional assay
[5] = molecular target: human macrophage migration-inhibitory factor (MIF) (human) (UniProt P14174); experiment: fluorescence spectroscopic titration, apparent Kd; Alexa-488-MIF titrated with ngm
[6] = molecular target: human macrophage migration-inhibitory factor (MIF) (human) (UniProt P14174); experiment: fluorescence spectroscopic titration of Alexa-MIF with increasing ngm-L5 [panel D]

Sequence of human macrophage migration-inhibitory factor (MIF) (human) (P14174 2-115 limits assumed): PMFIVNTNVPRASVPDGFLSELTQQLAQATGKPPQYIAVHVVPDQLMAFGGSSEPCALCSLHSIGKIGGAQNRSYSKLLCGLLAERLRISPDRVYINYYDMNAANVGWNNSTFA
Sequence of CXCL12 (human) (P48061 22-89 limits assumed): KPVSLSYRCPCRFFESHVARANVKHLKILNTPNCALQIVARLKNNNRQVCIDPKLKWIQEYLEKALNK

pKd [1] | pKd (CXCL12 (human)) | pKd [2] | pKd [3] | Atherogenic inhibitory activity (Dil-LDL uptake) (% of full-length msR4M-L1) [4] | pKd [5] | IC50 of inhibition of MIF-triggered Dil-oxLDL uptake (foam cell assay) [4] | EC50 (read off the curve) [6] | Substance
6.85 | < 5.30 | – | – | – | – | – | – | msR4M-L1 (CXCR4-ECL1[97-110]-6-Ahx-12-Ado-ECL2[182-196]) (designed binder)
– | – | 7.85 | 7.35 | 80 | 7.93 | – | – | msR4M-L3 ([ECL1(102-110)]-6 Ahx-12 Ado-[ECL2(187-195)]) (designed binder)
– | – | 7.92 | 7.92 | 80 | 7.36 | – | – | msR4M-L4 ([ECL1(102-110)]-8 Aoc-[ECL2(187-195)]) (designed binder)
– | – | 7.85 | 7.84 | 30 | 7.38 | 0.0697 µM | 0.04 µM | msR4M-L5 ([ECL1(102-110)]-O1pen-O1pen-[ECL2(187-195)]) (designed binder)
